Data reported in PMC13326754.

Assays:
[1] = system: U2AF1alpha;U2AF2beta (Fritillaria borealis;Fritillaria borealis); assay: EMSA; conditions: 330 nM U2AF; never exceeded 5% bound; EMSA: 20 mM Hepes, 0.1 M NaCl, 5% glycerol, 0.5% Tween-20, pH 7.8, 50 ng/ul BSA, 0.5 mM TCEP, 0.5 mM EDTA; 1 h on ice; 6% PAGE 0.5x TBE at 4 C
[2] = system: U2AF1beta;U2AF2beta (Fritillaria borealis;Fritillaria borealis); assay: EMSA; conditions: 330 nM U2AF; never exceeded 5% bound; EMSA: 20 mM Hepes, 0.1 M NaCl, 5% glycerol, 0.5% Tween-20, pH 7.8, 50 ng/ul BSA, 0.5 mM TCEP, 0.5 mM EDTA; 1 h on ice; 6% PAGE 0.5x TBE at 4 C

Sequence	binding signal [1] [% bound]	binding signal [2] [% bound]
GGGCUGUCCUCUUUUUUUUUUCAGGCGUCU [ORN.PyU]	< 5	< 5
GGGUCGCUUCUCCCCCCCCCUAGGCGUCU [ORN.PyC]	< 5	< 5
